Experimental data taken from publication PMC8263621, “A simple label-free electrochemical sensor for sensitive detection of alpha-fetoprotein based on specific aptamer immobilized platinum nanoparticles/carboxylated-graphene oxide”.

Biological target: T1, alpha-fetoprotein (AFP) (UniProt P02771 19-609)
T1 sequence: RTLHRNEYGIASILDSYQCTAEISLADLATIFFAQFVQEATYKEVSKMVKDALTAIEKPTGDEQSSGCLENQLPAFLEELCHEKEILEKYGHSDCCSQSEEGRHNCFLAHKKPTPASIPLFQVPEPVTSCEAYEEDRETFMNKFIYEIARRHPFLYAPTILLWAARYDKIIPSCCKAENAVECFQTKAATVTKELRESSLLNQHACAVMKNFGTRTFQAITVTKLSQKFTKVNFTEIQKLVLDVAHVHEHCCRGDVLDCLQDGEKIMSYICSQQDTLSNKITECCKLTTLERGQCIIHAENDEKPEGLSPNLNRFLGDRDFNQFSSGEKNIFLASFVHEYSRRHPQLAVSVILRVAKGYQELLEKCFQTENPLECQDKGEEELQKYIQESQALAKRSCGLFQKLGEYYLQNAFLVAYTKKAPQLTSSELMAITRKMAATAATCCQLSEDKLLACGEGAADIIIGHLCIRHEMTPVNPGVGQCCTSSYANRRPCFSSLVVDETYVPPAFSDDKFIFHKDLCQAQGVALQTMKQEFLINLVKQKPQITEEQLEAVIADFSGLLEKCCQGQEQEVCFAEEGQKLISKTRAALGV
Assay: electrochemical aptasensor (CV/SWV); aptamer immobilized on PtNPs/GO-COOH/SPGE; 3 mM hydroquinone probe; LOD 1.22 ng/mL, linear 3-30 ng/mL (not a Kd); 10 mM PBS pH 7.4, 3 mM hydroquinone for readout; BSA-blocked electrode (0.25% w/v); AFP incubation 45 min at room temperature
Settings: protein: commercial

B1: AFP aptamer (ssDNA)
DNA: GTGACGCTCCTAACGCTGACTCAGGTGCAGTTCTCGACTCGGTCTTGATGTGGGTCCTGTCCGTCCGAACCAATC
modifications: 5'-NH2
binding result: binds
